Assay results reported in US20080267971A1 (published 2008).
Where a chain is given by its changes, count along the chain named.

T1: Mouse/Human Ang-2 StuI chimeric molecule (mouse; human, UniProt O35608 19-496)
T1 construct: also called M/H Stul 310-496
T1 chain: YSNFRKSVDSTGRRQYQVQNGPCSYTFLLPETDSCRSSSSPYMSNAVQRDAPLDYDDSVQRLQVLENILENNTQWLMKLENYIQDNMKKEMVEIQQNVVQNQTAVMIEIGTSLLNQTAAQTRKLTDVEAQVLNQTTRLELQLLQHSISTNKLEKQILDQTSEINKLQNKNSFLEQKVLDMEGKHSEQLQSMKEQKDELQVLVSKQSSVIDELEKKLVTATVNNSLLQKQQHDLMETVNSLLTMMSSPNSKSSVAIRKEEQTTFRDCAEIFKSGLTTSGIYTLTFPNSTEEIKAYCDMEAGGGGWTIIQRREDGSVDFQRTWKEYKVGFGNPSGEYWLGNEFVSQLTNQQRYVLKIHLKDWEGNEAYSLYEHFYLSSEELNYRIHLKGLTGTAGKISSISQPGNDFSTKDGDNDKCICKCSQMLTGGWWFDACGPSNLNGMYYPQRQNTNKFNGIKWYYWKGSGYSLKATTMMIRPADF

T2: human Ang-2 V345M (human, UniProt O15123 19-496)
T2 sequence: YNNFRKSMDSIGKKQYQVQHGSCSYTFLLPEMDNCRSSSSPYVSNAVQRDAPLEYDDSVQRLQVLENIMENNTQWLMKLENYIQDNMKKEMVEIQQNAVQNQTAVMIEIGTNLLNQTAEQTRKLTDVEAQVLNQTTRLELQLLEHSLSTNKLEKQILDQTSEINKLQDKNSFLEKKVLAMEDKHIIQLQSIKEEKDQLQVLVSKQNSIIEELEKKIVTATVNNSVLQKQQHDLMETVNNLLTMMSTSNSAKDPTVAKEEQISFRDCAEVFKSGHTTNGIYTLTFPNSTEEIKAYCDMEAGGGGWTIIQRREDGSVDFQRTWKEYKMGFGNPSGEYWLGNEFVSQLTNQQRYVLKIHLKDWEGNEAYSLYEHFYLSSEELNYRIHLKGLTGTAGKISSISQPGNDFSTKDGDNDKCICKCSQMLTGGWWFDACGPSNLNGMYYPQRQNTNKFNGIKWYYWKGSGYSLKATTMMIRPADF

T3: Mouse/Human chimeric Ang-2 with the human StuI-TfiI fragment (mouse/human chimera, UniProt O35608 19-496)
T3 construct: also called Stu-Tfil 310-400
T3 chain: T1 chain with K386T, G393A, N403S, G410S, T424S, M440Q, R445K

T4: human Angiopoietin-1 (human, UniProt Q15389 20-498, limits assumed)
T4 construct: Bought recombinant protein (R&D Systems 293-AN-025/CF) or supernatant of transfected 293F cells; also called Ang-1; recombinant Ang-1
T4 sequence: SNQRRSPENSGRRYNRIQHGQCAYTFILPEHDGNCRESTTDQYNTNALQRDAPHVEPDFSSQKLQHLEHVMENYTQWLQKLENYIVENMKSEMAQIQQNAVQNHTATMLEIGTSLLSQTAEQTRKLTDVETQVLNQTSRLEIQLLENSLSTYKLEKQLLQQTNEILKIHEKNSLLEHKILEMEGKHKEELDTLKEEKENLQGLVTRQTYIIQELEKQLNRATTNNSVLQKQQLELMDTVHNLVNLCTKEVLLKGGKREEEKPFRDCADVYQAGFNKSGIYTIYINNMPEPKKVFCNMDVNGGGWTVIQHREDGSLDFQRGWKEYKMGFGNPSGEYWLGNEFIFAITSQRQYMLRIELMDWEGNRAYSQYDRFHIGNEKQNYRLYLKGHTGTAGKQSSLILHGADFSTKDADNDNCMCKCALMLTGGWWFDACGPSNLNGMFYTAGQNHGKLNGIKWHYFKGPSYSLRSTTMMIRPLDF

T5: human Angiopoietin-2 (human, UniProt O15123 19-496)
T5 construct: Mostly bought recombinant protein (R&D Systems 623-AM/CF, 623-AN; biotinylated BT623) or supernatant of transfected 293F cells; also called Ang-2; rhAng-2
T5 sequence: T2 sequence with M326V

B1: mAb 5.56.1 (antibody, V domains shown)
VH: QVQLVESGGGVVQPGRSLRLSCAASGFTFSSYGMHWVRQAPGKGLEWVAVIWYDGSNKYYADSVKGRFTISRDNSKNTLYLQMNSLRAEDTAVYYCAREDNWNFYFDYWGQGTLVTVSS
VL: DIQMTQSPSSLSASVGDRVTITCRASQGISYYLAWYQQKPGKVPKLLIYAASTLQSGVPSRFSGSGSGTDFTLTISSLQPEDVATYYCQKYNSAPFTFGPGTKVDIKR
notes: Human hybridoma IgG (XenoMouse); also called x5.56
B2: mAb 5.28.1 (antibody, V domains shown)
VH: EVQLVESGGIVVQPGGSLRLSCAASGFTFDDYTMHWVRQTPGKGLEWVSLISWDGGSTYYADSVKGRFTISRDNSKNSLYLQMNSLRTEDTALYYCAKDIDIAVAGTGFDHWGQGTLVTVSS
VL: EIVMTQSPATLSVSPGERATLSCRASQSVTSNLAWYQQKPGQAPRLLIYGALIRATGIPARFSGSGSGTEFTLTISSLQSEDFAVYYCQQYNNWPFTFGPGTKVDIKR
notes: Human hybridoma IgG (XenoMouse); also called x5.28
B3: mAb 5.35.1 (antibody, V domains shown)
VH: EVQLVESGGGVVRPGGSLRLSCTTSGFTFDDYGMSWVRQAPGKGLEWVSGINWNGGSTVYADSVKGRFTISRDSAKNSLYLQMNSLRAEDTALYHCARNKQWLWYFDLWGRGTLVTVSS
VL: B2 VL with T30S, L52S, I53T, Q89E, F96L, P100G, D105E
notes: Human hybridoma IgG (XenoMouse); also called x5.35
B4: mAb 5.13.1 (antibody, V domains shown)
VH: EVQLVESGGGLVQPGGSLRLSCAASGFTFSSYWMSWVRQAPGKGLEWVANIKQDGSEKYYVDSVKGRFTISRDNAKNSLYLQMNSLRAEDTAVYYCARDPGIAVAGPFDYWGQGTLVTVSS
VL: EIVMTQSPATLSVSPGERATLSCRASQSVSSNLAWYQQKPGQAPRLLIYGASTRATGIPARFSGSGSGTEFTLTISSLQSEDFAVYYCQQYNHWWTFGQGTKVEIKR
notes: Human hybridoma IgG (XenoMouse); also called x5.13
B5: mAb 5.40.2 (antibody, V domains shown)
VH: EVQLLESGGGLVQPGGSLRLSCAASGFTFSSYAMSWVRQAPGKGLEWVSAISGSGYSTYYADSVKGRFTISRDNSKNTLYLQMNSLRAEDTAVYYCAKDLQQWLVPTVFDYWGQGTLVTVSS
VL: B4 VL with A34V, G50D, A51S, A60V
notes: Human hybridoma IgG (XenoMouse); also called x5.40
B6: mAb 5.108.1 (antibody, V domains shown)
VH: QVQLVESGGGVVQPGRSLRLSCAASGFTFSSYGMHWVRQAPGKGLEWVAVIWYDGSNKYYADSVKGRFTISRDNSKNTLYLQMNSLRAEDTAMYYCARELALWGQGTLVTVSS
VL: B4 VL with N32Y, S52F, S63R, T69P, N92S
notes: Human hybridoma IgG (XenoMouse); also called x5.108
B7: mAb 5.39.1 (antibody, V domains shown)
VH: QVQLVQSGAEVTKPGASVKVSCKASGYTFTAYHMYWVRQAPGQGLEWMGWINPNSGGTNYAQKFQGRVTMTRDTSISTAYMELSRLRSDDSPVYYCARDQGIAAAGPFDYWGQGTLVTVSS
VL: B4 VL with E17D, L33F, A51S, N92H, H93Y, I105F
notes: Human hybridoma IgG (XenoMouse); also called x5.39
B8: mAb 5.62.1 (antibody, V domains shown)
VH: B4 VH
VL: B4 VL with S52F, E104G
notes: Human hybridoma IgG (XenoMouse); also called x5.62

Target: T1, Mouse/Human Ang-2 StuI chimeric molecule
Assay: ELISA

| % of binding to human Ang-2 | Binder |
| --- | --- |
| 100% | B1 |
| 100% | B2 |
| 100% | B3 |
| 100% | B4 |
| 100% | B5 |
| 100% | B6 |
| 100% | B7 |
| 100% | B8 |

target: T2, human Ang-2 V345M; assay: ELISA

| % of binding to human Ang-2 | Binder |
| --- | --- |
| 100% | B1 |
| 100% | B2 |
| 100% | B3 |
| 100% | B4 |
| 100% | B5 |
| 100% | B6 |
| 100% | B7 |
| 100% | B8 |

Target: T3, Mouse/Human chimeric Ang-2 with the …
Assay: ELISA

| % of binding to human Ang-2 | Binder |
| --- | --- |
| 100% | B1 |
| 100% | B2 |
| 100% | B3 |
| 27% | B4 |
| 65% | B5 |
| 36% | B6 |
| 25% | B7 |
| 30% | B8 |

target: T4, human Angiopoietin-1; assay: capture ELISA
Procedure: The binding of the top 27 human monoclonal antibodies was detected with a HRP-conjugated goat anti-human antibody, followed by colorimetric horseradish peroxidase substrate (Enhanced K-Blue TMB substrate Neogen Corporation). The absorbance of each well of the ELISA plates was measured at 450 nm on a microplate autoreader.

| binding result | Binder |
| --- | --- |
| no binding | B1 |
| no binding | B2 |
| no binding | B3 |
| no binding | B4 |
| no binding | B5 |
| no binding | B6 |
| no binding | B7 |
| no binding | B8 |

target: T5, human Angiopoietin-2; assay: Biacore; kd held constant (*)
Procedure: The label-free surface plasmon resonance (SPR), or Biacore, was utilized to measure the antibody affinity to the antigen. For this purpose, a high-density goat anti-human antibody surface over a CM5 Biacore chip was prepared using routine amine coupling. All the purified mAbs were diluted to approximately 8 μg/ml in HBS-P running buffer containing 100 μg/ml BSA and 10 mg/mL carboxymethyldextran. Each mAb was captured on a separate surface using a 42-second contact time, and a 5-minute wash for stabilization of the mAb baseline.
Data were fit globally to a 1:1 interaction model to determine the binding kinetics.

| koff | Binder |
| --- | --- |
| ≤ 1e-05 s⁻¹ | B1 |
| ≤ 1e-05 s⁻¹ | B2 |
| ≤ 1e-05 s⁻¹ | B3 |
| ≤ 1e-05 s⁻¹ | B4 |
| ≤ 1e-05 s⁻¹ | B5 |
| ≤ 1e-05 s⁻¹ | B6 |
| ≤ 1e-05 s⁻¹ | B7 |
| ≤ 1e-05 s⁻¹ | B8 |
